The results in this text go back to patent publication US20230265151A1, “GIP/GLP1 CO-AGONIST COMPOUNDS” (priority 2020, published 2023).

Holding throughout (assay): cell-based or functional assay
Assay [1] addresses human glucagon receptor (human) (UniProt P47871).
Assay [2] concerns the target hGLP-1R (Homo sapiens, UniProt P43220).
Assay [3] concerns the target T1, human GIP receptor (human) (UniProt P48546).
T1 sequence (looked up): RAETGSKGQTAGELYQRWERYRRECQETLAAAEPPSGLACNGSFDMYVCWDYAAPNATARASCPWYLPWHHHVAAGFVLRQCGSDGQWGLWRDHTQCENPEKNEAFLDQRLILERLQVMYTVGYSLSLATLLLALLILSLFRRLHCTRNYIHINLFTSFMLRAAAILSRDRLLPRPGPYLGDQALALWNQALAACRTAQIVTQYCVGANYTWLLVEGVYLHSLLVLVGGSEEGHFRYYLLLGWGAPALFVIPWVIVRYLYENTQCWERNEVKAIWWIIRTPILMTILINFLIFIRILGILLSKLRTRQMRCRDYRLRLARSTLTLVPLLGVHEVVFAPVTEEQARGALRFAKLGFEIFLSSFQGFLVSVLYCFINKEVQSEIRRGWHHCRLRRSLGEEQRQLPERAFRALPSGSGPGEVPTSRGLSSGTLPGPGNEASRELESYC

In assay [4] the target is human GLP-1 receptor (human, UniProt P43220 24-463).
The target of assay [5] is human glucagon receptor (human, UniProt P47871 26-477).
The target in assay [6] is T2, human GIP receptor (human, UniProt P48546 22-466).
T2 sequence (looked up): T1 sequence (looked up)

Residue numbers refer to the chain shown, from its start. *1 amine or outer side, *2 acyl side, *3 side chain or, on linkers, in order; H or OH if unused. Where no end group is shown, it is not given here. Side-chain parts run from the residue outwards. [ ]: non-standard residue; d: D form. The star is where a group is joined. Decanoyl(10-(4-HOOC-PhO)) = O=C(O)c1ccc(OCCCCCCCCCC(=O)*)cc1; αMePhe(2-F) = C[C@](N)(Cc1ccccc1F)C(=O)O; γGlu = O=C(O)[C@H](CCC(=O)[*:2])N[*:1]; αMeY = C[C@](N)(Cc1ccc(O)cc1)C(=O)O; αMeL = CC(C)C[C@](C)(N)C(=O)O; Orn = NCCC[C@H](N)C(=O)O; AEEA = NCCOCCOCC(=O)O; Aib = CC(C)(N)C(=O)O

Chain of human glucagon receptor (P47871 26-477): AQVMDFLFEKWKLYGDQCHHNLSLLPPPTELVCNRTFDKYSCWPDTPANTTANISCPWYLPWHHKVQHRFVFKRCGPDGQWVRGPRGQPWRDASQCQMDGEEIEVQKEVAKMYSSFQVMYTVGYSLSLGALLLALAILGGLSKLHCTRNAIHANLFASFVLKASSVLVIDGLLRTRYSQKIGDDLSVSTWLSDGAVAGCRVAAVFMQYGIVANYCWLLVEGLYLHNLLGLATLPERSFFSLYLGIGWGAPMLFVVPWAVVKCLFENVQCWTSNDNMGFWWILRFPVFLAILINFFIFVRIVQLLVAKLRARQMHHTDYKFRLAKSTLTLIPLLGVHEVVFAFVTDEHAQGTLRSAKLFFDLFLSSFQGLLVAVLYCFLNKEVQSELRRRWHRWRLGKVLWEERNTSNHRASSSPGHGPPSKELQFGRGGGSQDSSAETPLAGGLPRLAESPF

For the molecule Y[Aib]EGT[αMePhe(2-F)]TSDV[Aib]I[αMeL]LD[Orn]K([AEEA-γGlu-Decanoyl(10-(4-HOOC-PhO))])AQ[Aib]EFI[dE][αMeY]LIK([AEEA-γGlu-Decanoyl(10-(4-HOOC-PhO))])GGPSSGAPPPS-NH2 [Example 379], the results for the cAMP EC50 in assay [1], in assay [2] and in assay [3] were more than 9950 nM, 0.171 nM and 0.0167 nM, respectively. Further, the cAMP Emax in assay [2] worked out at 104%; in assay [3], 97.5%. In addition, the “cAMP EC50 (1.0% HSA)” value is 48.5 nM in assay [4], more than 9950 nM in assay [5] and 11.6 nM in assay [6]. Moreover, in assay [6], the “cAMP Emax (1.0% HSA)” value came to 90%.

B1: Example 372 (peptide)
peptide: YXEGTXTSDYXIXLDXKAQXKFIXXLIEGGPSSGAPPPS
modifications: Y-Aib-EGT-αMeF(2F)-TSDY-Aib-I-αMeL-LD-Orn-K((2-[2-(2-Amino-ethoxy)-ethoxy]-acetyl)-(γ-Glu)-(10-(4-carboxyphenoxy)decanoyl))AQ-Aib-K((2-[2-(2-Amino-ethoxy)-ethoxy]-acetyl)-(γ-Glu)-(10-(4-carboxyphenoxy)decanoyl))FI-(D-Glu)-αMeY-LIEGGPSSGAPPPS-NH2
On to B1, for which the results for the cAMP EC50 in assay [1], in assay [2] and in assay [3] were more than 9950 nM, 0.291 nM and 0.0112 nM, respectively. The figures for the cAMP Emax in assay [2] and in assay [3] were 108% and 97.3%, respectively. Moreover, the “cAMP EC50 (1.0% HSA)” value in assay [4] is 38 nM; in assay [5], more than 9950 nM; in assay [6], 3.75 nM. The “cAMP Emax (1.0% HSA)” value in assay [6] was determined as 90.6%.

B2: Example 378 (peptide)
peptide: B1 peptide with Y10V
modifications: Y-Aib-EGT-αMeF(2F)-TSDV-Aib-I-αMeL-LD-Orn-K((2-[2-(2-Amino-ethoxy)-ethoxy]-acetyl)-(γ-Glu)-(10-(4-carboxyphenoxy)decanoyl))AQ-Aib-K((2-[2-(2-Amino-ethoxy)-ethoxy]-acetyl)-(γ-Glu)-(10-(4-carboxyphenoxy)decanoyl))FI-(D-Glu)-αMeY-LIEGGPSSGAPPPS-NH2
For the molecule B2, the cAMP EC50 is more than 9950 nM in assay [1], 0.166 nM in assay [2] and 0.0132 nM in assay [3]. The cAMP Emax is 98.9% in assay [2] and 93.5% in assay [3]. For the same molecule, the “cAMP EC50 (1.0% HSA)” value is 47.7 nM in assay [4], more than 9950 nM in assay [5] and 7.46 nM in assay [6]. In assay [6], the “cAMP Emax (1.0% HSA)” value turned out to be 81.2%.

B3: Example 373 (peptide)
peptide: B1 peptide with K21E, E28K
modifications: Y-Aib-EGT-αMeF(2F)-TSDY-Aib-I-αMeL-LD-Orn-K((2-[2-(2-Amino-ethoxy)-ethoxy]-acetyl)-(γ-Glu)-(10-(4-carboxyphenoxy)decanoyl))AQ-Aib-EFI-(D-Glu)-αMeY-LIK((2-[2-(2-Amino-ethoxy)-ethoxy]-acetyl)-(γ-Glu)-(10-(4-carboxyphenoxy)decanoyl))GGPSSGAPPPS-NH2
For the molecule B3, the cAMP EC50 in assay [1] was more than 9950 nM; in assay [2], 0.329 nM; in assay [3] it was 0.0152 nM. Besides, the cAMP Emax in assay [2] and in assay [3] was 101% throughout. The “cAMP EC50 (1.0% HSA)” value in assay [4] was 37.4 nM; in assay [5], more than 9950 nM; in assay [6], 2.84 nM.

B4: Example 376 (peptide)
peptide: B1 peptide with K17I, E28K
modifications: Y-Aib-EGT-αMeF(2F)-TSDY-Aib-I-αMeL-LD-Orn-IAQ-Aib-K((2-[2-(2-Amino-ethoxy)-ethoxy]-acetyl)-(γ-Glu)-(10-(4-carboxyphenoxy)decanoyl))FI-(D-Glu)-αMeY-LIK((2-[2-(2-Amino-ethoxy)-ethoxy]-acetyl)-(γ-Glu)-(10-(4-carboxyphenoxy)decanoyl))GGPSSGAPPPS-NH2
With B4, the cAMP EC50 is more than 9950 nM in assay [1], 0.539 nM in assay [2] and 0.0281 nM in assay [3]. For the same molecule, the cAMP Emax in assay [2] was found to be 104%; in assay [3], 99.8%. Further, the “cAMP EC50 (1.0% HSA)” value in assay [4] was 419 nM; in assay [5], more than 9950 nM; in assay [6], 39.6 nM. The “cAMP Emax (1.0% HSA)” value came out at 121% in assay [4] and 88.3% in assay [6].

B5: Example 374 (peptide)
peptide: YXEGTXTSDYXIXLDXKAQXEFIXXLIEGGPSSGAPPPSK
modifications: Y-Aib-EGT-αMeF(2F)-TSDY-Aib-I-αMeL-LD-Orn-K((2-[2-(2-Amino-ethoxy)-ethoxy]-acetyl)-(γ-Glu)-(10-(4-carboxyphenoxy)decanoyl))AQ-Aib-EFI-(D-Glu)-αMeY-LIEGGPSSGAPPPSK((2-[2-(2-Amino-ethoxy)-ethoxy]-acetyl)-(γ-Glu)-(10-(4-carboxyphenoxy)decanoyl))-NH2
B5: the cAMP EC50 is more than 9950 nM in assay [1], 0.269 nM in assay [2] and 0.0135 nM in assay [3]. Also, the cAMP Emax in assay [2] turned out to be 106%; in assay [3] it was 96.2%. The “cAMP EC50 (1.0% HSA)” value in assay [4] is 39.7 nM; in assay [5], more than 9950 nM; in assay [6], 1.96 nM. In addition, the “cAMP Emax (1.0% HSA)” value in assay [6] is 88.8%.

B6: Example 377 (peptide)
peptide: B5 peptide with K17I, E21K
modifications: Y-Aib-EGT-αMeF(2F)-TSDY-Aib-I-αMeL-LD-Orn-IAQ-Aib-K((2-[2-(2-Amino-ethoxy)-ethoxy]-acetyl)-(γ-Glu)-(10-(4-carboxyphenoxy)decanoyl))FI-(D-Glu)-αMeY-LIEGGPSSGAPPPSK((2-[2-(2-Amino-ethoxy)-ethoxy]-acetyl)-(γ-Glu)-(10-(4-carboxyphenoxy)decanoyl))-NH2
With B6, the cAMP EC50 in assay [1] was more than 9950 nM; in assay [2] it was 0.356 nM; in assay [3], 0.0205 nM. Moreover, the figures for the cAMP Emax in assay [2] and in assay [3] were 100% and 92.8%, respectively. The “cAMP EC50 (1.0% HSA)” value in assay [4] was 178 nM; in assay [5], more than 9950 nM; in assay [6] it was 17.5 nM. In addition, the “cAMP Emax (1.0% HSA)” value amounted to 110% in assay [4] and 79.4% in assay [6].
